Laboratory results published in the supplement of paper PMC9170038.

Tested on: K4 kissing-loop RNA reporter
Experiment: apparent KD of K4 kissing-loop reporter; higher = weaker reporter binding
Settings: Eterna round: R107
Method: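 RNA-MaP round R107: designed RNA switches with theophylline, tryptophan, arginine or FMN aptamers are transcribed on-chip within common flanks. They are titrated with a labelled K4 kissing-loop RNA reporter in RNA-MaP buffer (100 mM Tris pH 7.5, 80 mM KCl, 4 mM MgCl2), without ligand or with the indicated ligand. Median apparent KD per design.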

[1] = input ligand: theophylline 20 uM
[2] = input ligand: tryptophan 2.4 mM
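Also: bound reporter read as fluorescence of individual clusters on recovered sequencing chips by microscopy, with normalized cluster intensities fitted with a binding model.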

Row | Sequence | apparent KD of K4 kissing-loop reporter (input ligand: FMN 200 uM) [nM] | apparent KD of K4 kissing-loop reporter (input ligand: arginine 13.2 mM) [nM] | apparent KD of K4 kissing-loop reporter (input ligand: none) [nM] | apparent KD of K4 kissing-loop reporter [1] [nM] | apparent KD of K4 kissing-loop reporter [2] [nM]
1 | GGUAGCAUGGCGGCCGCCACUUCGAAUAAGUGAUGUUUAUUUGACUGAGCACCCUAUGCCAUGUGAAGGACCGGGCCAUGCUACC | 147 | 138 | 157 | 208 | 200
2 | UGAUAAAGCAGUGAUGUUGCAAGAAAUGAUACCAGUUAAGAAGAGAACCCUUGGCAGCAUAAAGUGCGCUCUAAUGAGUGUGCUU [whbob_SS_Theo_A_w50] | 88.8 | 143 | 123 | 179 | 87.6
3 | UGUCAUUGGUCGGCCGCCACUUCAUAAAGAGUGAUGUUCUAAAAGACGGAUCGAAAGAUCUGUCGAAGGACCGGGACCGAUGACU [TrypBS 18 #SwitchBubble #StaticStem] | 1410 | 641 | 1200 | 915 | 279
4 | GGUAGCAUGGCGGCCGCCACUAAUACUUCGUAGCCUGUAGCCGGCUUCGUAGAGUGAUGUUCUAUUAGGACCGGGCCAUGCUACC | 361 | 520 | 450 | 526 | 493
5 | AAAUUCUUUUUUUUAUUUAACUUUUCAGAAGGAGCGUGGUAGUUCACAGGUAGGUCGCUGAAUUUUGGACUAGUGAUGUUAGUUA [JR_SSArginiA_Sub006] | 148 | 214 | 234 | 216 | 158
6 | AGUAGGAAACUACAAUCCUCUCUUACUGAAGGAGCGCGUGAAAACGCAGGUAGGUCGCAGGAUUUGAGAGUGAUGUUCUCAUUAA [Ex Arginine A K4 16] | 201 | 294 | 231 | 277 | 174
7 | GAGCCAGAAGUUGCUGCGGGUUUCAGAGAUACCAGCCGUAUUGUAGGCCCUUGGCAGCUCGAGUGAUGUUCGAGCCGCUUCUAGC [Inma] | 128 | 95.4 | 120 | 115 | 114
8 | CACGAUGAAUUCUCUAGGAGUGAUGUUUUUCGAGGACCGGUACGGCCGCCACUCGGACGACGAGCGUGGUAGCGGCGUGAAGACU [zamullin] | 365 | 276 | 625 | 459 | 452
9 | GGGAGCAAAGCUCCCGGAUGCUAUUACCAGGAGGAUAUCUGGAAACAGAGAAGGCCUAAGCCAGUGAUGUUGGUUUCGAGCAUCC | 184 | 257 | 278 | 305 | 274
10 | CCGGGCGGCCGAAGGAGCGGGCGGACCCGAGUGAUGUUCGGGUGGACCGUGAGGUCCGGUGCCCAGGUAGGUCGCGGUUCCGCCC [#2 Same State - Arginine B Attempt #5 (HarryS)] | 117 | 123 | 129 | 118 | 120
11 | GUGCAAAGCACCGGCACGAGCAGCCUAAAGGAGGAUAUGACGAAAGUCAGAAGGUCUAGUGAUGUUAGGCCUUGCUUGAGUCGAA [Omei KL FMN A Exc B v3] | 288 | 278 | 402 | 405 | 327
12 | UGAUACCAGACGGCCGCCACUCCCGCAGGUCAAAGACCUGCGAAGAAGGUUCUUUAGUGAUGUUGGAGGACCGGGUCUGGUAUCU [FiskerMod 21 - Jieux - Exclusion - Tryptophan B] | 735 | 312 | 744 | 417 | 523
13 | UGUCAUUGGUCGGCCGCCACUAUAAUAAAAGAGUGAUGUUCUAAAAGACGGACAAAAGUCUGUCAUAGGACCGGGACCGAUGACU [TrypBS 25 #SwitchBubble #StaticStem] | 822 | 430 | 589 | 131 | 616
14 | UGAUAGGACAGAAGGAGCGGAGCUGGUCAAAGACCAGCAAUACGUUAAAUAGGAGUGAUGUUCCAGGUAGGUCGCUGUCCUAUCU [ArgBX 28 #SwitchBubble #StaticStem] | 131 | 121 | 121 | 101 | 87.9
15 | GGUGUUGUUUGUGCCGCCUUCCUCGUUCCUCGAGGACCGGUACGGCCGCCACUCGAGUGAUGUUUGGGUAGCGAUCCCUGUUAGU [Bdazzled - #11 Exc. Tryptophan A] | 764 | 573 | 892 | 638 | 778
16 | UCUCUUCUCAGUGAUGUUGAGUAAUCGGAAGGAGCGCGUGAAAACGCAGGUAGGUCGCCGAUUUGUGAAGUAUCUUCGCAAGAGA [Arginine A K4 26] | 352 | 341 | 412 | 441 | 300
